Measurements reported in patent US11781164B2, “Demethylation of reticuline and derivatives thereof with fungal cytochrome P450” (priority 2017, dated 2023).

B1: CYPDN16: cytochrome P450 homolog A0A1X2HFU1 from Syncephalastrum racemosum, codon-optimized (protein, listed as Syncephalastrum racemosum)
chain: MTQLTTPDTLGKLLAIYRQTPASRRASWIGWAVAATVIASQLYKTLVPPSNLPNLPTINYFRLLSSFLRRDSPTIRSQEILIPALEKHEQKKAYLAKLPLTWTVFLVDPIAAKIFLMKMDIFPKIKETIDALDSQHPIVEFFGRENVAISVGEAWRNQRKVMNPAFRRAMPISIFGNLMFKVFKNIEENKPVIAIDLMQAFTLDALGRAAFSFDFHALDDQHSIWVETYEIIRQSLRNPANAVLARYNFITKYLMPGRAKQKAATHKLNSLLLEMASRKRAELEKHPELRELPDSEKDLLTLMVEADMESGDDPTSAELLRANLSVFFLAGHDTTANTLSFWLYHMAVNKDVQAKAREEVIKILGDGPEDVMPTADQCKQMTYLDCIIKENLRLLGPASQLIPRMATEDVDLNGIFIPKGTRVTVDMHTMHYSPMLWKDPGVFKPDRFLDEGEHSQHRGLAWLPFSSGGRQCLGMNFSLTEQRVVMSMMLRKYTWELPADSIHRDGVKLNEVNTVAPRTLSIIFQQRYH
B2: CYPDN10: cytochrome P450 homolog A0A0B7NB52 from Parasitella parasitica, codon-optimized (protein, listed as Parasitella parasitica)
chain: MAIENFMQSYNRAIENVLPILRKRSKASYIGMAIMCIVIKQVYSAYSVPKHLQRFPKVSFLSMIRSYLIKEAVVERTKRLVTPLTDAGHGFYVCKIPLTWTVFVTDPIAAKTLLLKTEFFPKSHAFFDALGDNSPAVQFLGRENVAASNGEIWKKQRKFMNPAFLRSSPVKTFSSVTHNLIKVIETQSDAVPIANCMKAFTIDALGLSAFGFDFQSLNGDPEGWTETYNIAIAGLFDPFINIFVKVDFMMNYISSKRKRINKAITRFNSMLEDLANKRRQEILNGETLGVPENEKDLLTLMIEADIREGSRTTSTELRHNIALFFLAGHDTTAHTLAFCLYNLAKNKHVQAKARAEVLDILGDEPKDVDPTMEDLKRMDYLNMVIKENLRRCGPVDKLLSRDTAEDIDLNGTLIPKGQKISIDFNSIHMNPKLWHNPEEFVPERFEPGGEFDQHTGFTWLPFSHGSRQCIGMNFSLTEQKVLLSMICKRAIEEI
B3: CYPDN18: cytochrome P450 homolog A0A0C9MNJ6 from Mucor ambiguus, codon-optimized (protein, listed as Mucor ambiguus)
chain: MYSTASYNQTLERVVSVVRKNKTSYIGMAILCVVLQQIYSSFAVPPKHLRRFPKVSFMELMKSFYKKESVMNRNKRLVTPLTNAGHGFYISRIPLDWTIYVTDPIAAKTLLLKTDNFPKSHAIFGALGESSPVVKFMGNENVAVSNDILWRKQRKIMNPAFHRSQPVKVFGGVMPDLFALIDQDPEHVFITPKIKSFALDALGLSAFGFDFQSLKNDPEGWTSKYNTVVSSLFNPFVNLFAKCDFLIKYISAERRRVIKVTDEFNAMLSNLADKRRQEIMNGEKKNIAENEKDLLTLMIEADTREGVETTTTELRHNMAIFFLAGHDTTANTLALCLYQLAKHKHVQKKARQEVLDILGDDPWDVAPSLEDLKKLNYLNMVIKENLRRNGPVDNLMSRDTQQDINLNGTFIPKGSKVVINVASIHLNPKIWHNPESFIPERFEQGGEFDSHDGFTWLPFSNGSRQCLGLNFSLTEQRVALCMLLKRYEIDIPKDSIHYDEIVFDKAFTFAPQSLELSFKKRY
B4: CYPDN20: cytochrome P450 homolog A0A163A6R1 from Phycomyces blakesleeanus, codon-optimized (protein, listed as Phycomyces biakesleeanus)
chain: MCLFFCKKVYDFTAVPYELKKFPNIPFFYFVKSILSVESVENRTKRLVLPLLHKNNGFYVSRFPFYWTVFTTDPDAVQYLLMKGEIFPKDTRFTSAVSKDSLIIRLFGSSNVAFISGEPLKHQCRTMNPAFRRTAPVNIFGRLIPDMFRLIDKSDGDILIVNLLQRMTFDALGKALFGFDFKTMKEDNSAWMTAYSDAMSGVTAPVLNIIPSLEYILRYFYPNYTKAKNGVDKLNRLILELVNKKKQELEESMPQSCSNNNNGDTDGDAYDQEKDLLTLILEAEMKDNKSSGSDDLRANMATFIMAGHETTASSVSFCIYHMVINKDVRDKARREALDILGYDDFISPPTFDECKRVNYINMVVKEALRLCTPGGLLFERIATEDVFLSGVFIPKGTRISVDIEALHKNPAIWKNPSVFDPERFSKGGEHEQHRGITWAPFSDGNRKCLGINFSMTEQQVILLMLLKHYEWDLSENSIHNNGMVYDNVFSFAPKTLSIKFHKRH
B5: CYPDN13: cytochrome P450 homolog A0A1X2HZE4 from Absidia repens, codon-optimized (protein, listed as Absidia repens)
chain: MGTSYKRKAAYVTIGAAVVLLFRSIYGFYYVPKSLRHLPCVGYRELAYSIMKREDAATRARSVLGQAIKEKNGAFVAKFPMEWTVFLTSPRTIQAVLLKSDKFPKTYDMFHALGESSPFVKFLGIKNVGFSNGDDWKRQRKVMNPAFQRSVPVEMFGKLMQKGILAIEKQGYEVRALDFFERITLDSIGIFLFSFDFGSLDNPNSVWSLTYDTIRRGIKNPALTVFPQLDCLLKYVTPGRRHLDQCVTKLNNLLMEVAKEKRRQVQSPSDKLIPDSEKDLLTLILEAELRGDGSASDEELRGNLALFFLAGHETTASAMCFCLYNLAMNKDIQEKARKEVLEVLGDEPVDVRPDIQDLKQFRYMDMILHENLRRFGPAAMLLPRKSEEDFVADGILIPKNTPVVIDLNTMHHNPQVWKDPEIFDPERFAPGGEYEANGEKMAWLPFSSGSRVCIGKSFSMAEQRVFLSMLLKKYEWDFPDDSIHRDGIKMENFENNAPESLSFRFHPRY
B6: CYPDN21: cytochrome P450 homolog XM_018432503 from Phycomyces blakesleeanus, codon-optimized (protein, listed as Phycomyces biakesleeanus)
chain: MLAKKVNGYAGFTLDAIQTIYFNRAIKLVRPPKALSHIPHVPYFSYMSSLIKKENTISRNKRFANKLFEDPESNGLYLRPNVKGWEVVVTRPEDAKKLLFKSDIFPKADFTSGIDGTILSKFSRGPNLLFTTGAHWKAQRMVANPAFHRSAPVKLFGELTQKLFRVMDNRANKTVDITRLMEAWALDAIGLAGFDFDFNAIENPNSSWVRIYERVDKALVHPFYSFFPKADKYLLWVLPNRKQAHTDLDIFLKMIDNVIIAKKKALHENKSNKHLENSEKDLLTLMLESEAKGSTLSAKELRSNMCVFFAAGHETTANSLAYAIYFMAVNPDVQCKAREEAFKVLGDAQEDIMPTIEQTKSMDYINAVIKETLRSHSPALGTFARKATKDTELGGVLIPKDTMISMDIFNLHHNPNVWNNPDEFDPSRFLPGGEAEKQINNGFSWIPFGTGARQCIGMNFSLIEQRVMLSMMLRKFAWSLPEDSIHKDYLHTTNLVISSAKDLNINFEKLY
B7: CYPDN11: cytochrome P450 homolog A0A068SB73 from Lichtheimia corymbifera, codon-optimized (protein, listed as Lichtheimia corymbifera)
chain: MAVASPQIKNMVTMDRLQDIYSTVSQHVVAHASAVTSRQRKISISAAVALVAFYTVYKVVTPPANLRHIPSMGFFSYLNAFLRGKQLHDISKNVVLPHAVNVDNGVYLRFDILGWTVHIARPEAAKRFLLKSDIFPKADMISERGNTLFGKFVFNRNIVMLNGDDWKAQRKVANPAFHRAMPVELFGRLTQKTLKKMEEEMDGGTLNFHDITERYTLEVIGLAGFEFEFGAIENPKSEWVDRYQRLIEATFNPWFIAFPNLDMRYRFLFPSRKRLHREMDAFLDKMSQVITHKRELLNHQKTTVPESERDILTLMIEAEKNGEGSMTNEELQNNLLVFFIAGHDTTSLALSYAAYYLAVNPDVQRKAREEAIRVLGDAPEDVMPTVEQTRQLTYINMVIKETLRMSPPLATIPVREASEDTELCGTFIPKGTRTFLDIYEIQHNPTVWKDPETFKPERFKPGGEAEELAGSGMSWLPFSNGSRQCIGLNFSLVEQRVFLPMLLRKYEWHLPEDSIHKERIQTMGLAVIKPKDLKLTFKKRY
B8: CYPDN14: cytochrome P450 homolog A0A168T1R5 from Absidia glauca, codon-optimized (protein, listed as Absidia glauca)
chain: MPIVNALQTYSYEEPINFLKDVWLNRLFPAGTSNRKKAALLTLGATIALVCRTVYRLYRVPRSLRHIPAVGYVAMLRSILKREDATTRAMTIFQPAMKKGNGVFLVNFPLEWSIYVAEPLAAKAVLMKSDNFPKSIDFIHALGKENPVVKFFGTDNVALVNGEQWKRQRKVMNPAFHRAMPVQMFGRLLQKGFKNIEEQGHQVAALDFFQRLTLDALGHAVFGFDFGALNDREAVWTVTYESIRLNLRNPLAFAFPSMDWLLKYVIPGRLQMAASVDKLNGLMMDMIKEKRIKLLESQAQDDTPENEKDLLTLMLEAEQRGEGTTNDEELRSNMAVFFLAGHETTANTMSFCLYNLAMDKSVQEKARQEVIKVLGDEPEDVLPRNEELRQIPYLDMILKENLRRFGPASMLNARKTVEDFDMNGTFIPKNTSVIVETNALHHNPEVWKNPEQFDPERFAPGGEHETSHEGMAWLPFSSGSRGCLGMNFSMAEQRVFLAMLLRKYEWDLPKDSIHKNGIQIGNFQNACPDSLKIQFTPRY
B9: CYPDN12: cytochrome P450 homolog A0A1C7N669 from Choanephora cucurbitarum, codon-optimized (protein, listed as Choanephora cucurbitarum)
chain: MFTETALQIYHQMAEKVLPILKRQPKSSYIGAALVFLLVAEIRRQLSVPKHLKKFPTIGVFTLMKSFMRNDSVIERHNRLVAPIVKQGHKFYAAKIPFDWSLSIVDPEIAKIMLMKSDAFPKSQGFTRKLGDSSLIVRFTGRDNVSISNGHVWKRQRKFMNPAFRRSTPIKTFGELTLKFFDCVDEQPQDFPAAIKLKNYTLDALGIAAFDFDFKSLSGDPEGWTEIYNVIMKGMFDPWVFLFGKMEFILQYIIPSKRECIKSVVKFNKMLVEMADKRRQEIQNGKKLNTPNSEKDLLTLMIEAEMEEGIMTTNEELRENIALFFLAGQDSTGNSLSFCLYHLAKNKHVQDKLRREIMSVMGDRDLDAIPTVEDFKDMPYLNMVIKENLRLSGPADRFLDRVVAEDIVLGGELIPKGTLITVDVASIHYNPEYWHDPEVFIPERFEPNGEFDQHAGVAWLPFSNGARQCIGMNFSLAEQRVFLTMLLRRYEVGISKDSIHYDSIVYEQSFTFAPSSLTLNFTKLN

system: thebaine; assay: Demethylation of thebaine by new cytochrome P450 fungal and plant homologs co-expressed with CPRs in S. cerevisiae; conditions: 0.5 mM thebaine, SC or DELFT media pH 7, 72 h, 30° C.; co-expressed with Cel_CPR_co, Tp_CPR_5866, Tp_CPR_DN10898 or POR1

Molecule	Northebaine production
B1	+
B2	+
B3	+
B4	+
B5	+
B6	+
B7	+
B8	+
B9	+
